# B1: pro-meprin α (V22-S600), wild type zymogen (enzyme, UniProt Q16819 22-600, looked up)
# chain: VPIKYLPEENVHDADFGEQKDISEINLAAGLDLFQGDILLQKSRNGLRDPNTRWTFPIPYILADNLGLNAKGAILYAFEMFRLKSCVDFKPYEGESSYIIFQQFDGCWSEVGDQHVGQNISIGQGCAYKAIIEHEILHALGFYHEQSRTDRDDYVNIWWDQILSGYQHNFDTYDDSLITDLNTPYDYESLMHYQPFSFNKNASVPTITAKIPEFNSIIGQRLDFSAIDLERLNRMYNCTTTHTLLDHCTFEKANICGMIQGTRDDTDWAHQDSAQAGEVDHTLLGQCTGAGYFMQFSTSSGSAEEAALLESRILYPKRKQQCLQFFYKMTGSPSDRLVVWVRRDDSTGNVRKLVKVQTFQGDDDHNWKIAHVVLKEEQKFRYLFQGTKGDPQNSTGGIYLDDITLTETPCPTGVWTVRNFSQVLENTSKGDKLQSPRFYNSEGYGFGVTLYPNSRESSGYLRLAFHVCSGENDAILEWPVENRQVIITILDQEPDVRNRMSSSMVFTTSKSHTSPAINDTVIWDRPSRVGTYHTDCNCFRSIDLGWSGFISHQMLKRRSFLKNDDLIIFVDFEDITHLS
# modifications: N-linked glycosylations
# notes: meprin α, UniProt Q16819, residues V22-S600 (native signal peptide omitted, stop codon after S600; lacks the EGF-like and transmembrane regions); pro-peptide still on the chain; Disulphide-linked (C308) homodimer; the homodimers join non-covalently into a helical filament; Secreted through the BiP signal peptide of pMT/BiP/V5; also called latent state; meprin α ectodomain; source: Schneider-2 …
# How the values were obtained:
# [1] = target: meprin α R372A (human (from the printed accession Q16819)) (UniProt Q16819); assay: electron microscopy; variants imaged, concentration not stated (below the high concentration of 3 µM); N counts subunits
# [2] = target: meprin α R372A (human (from the printed accession Q16819)) (UniProt Q16819); assay: mass photometry; single-molecule mass measurement, 20 °C; low concentration (10 nM in the results, roughly 2-5 nM in the methods); association of homodimers through the helical interface; N counts subunits
# [3] = target: meprin α R372T (human (from the printed accession Q16819)) (UniProt Q16819); assay: electron microscopy; variants imaged, concentration not stated (below the high concentration of 3 µM); N counts subunits
# [4] = target: meprin α R372T (human (from the printed accession Q16819)) (UniProt Q16819); assay: MALDI-TOF mass spectrometry; linear positive mode, DHAP matrix; shows only covalently (disulphide) linked species; N counts subunits
# [5] = target: meprin α wild type (V22-S600 construct; zymogen or activated form not told for the experiment) (human (from the printed accession Q16819)) (UniProt Q16819); assay: as above
# [6] = target: the molecule itself; assay: cryo-EM structure; meprin α alone (zymogen or active form), helical filament of covalent homodimers; 30 mM Tris, 100 mM NaCl, pH 7.4; pseudo single-particle analysis of filament segments
molecule,measurement,setting,value
meprin α R372A (from UniProt Q16819 22-600) (enzyme),stoichiometry N,[1],2
same,stoichiometry N,[2],4
meprin α R372T (from UniProt Q16819 22-600) (enzyme),stoichiometry N,[3],2
same,stoichiometry N,[4],2
meprin α wild type (V22-S600 construct; zymogen or activated form not told for the experiment) (from UniProt Q16819 22-600) (enzyme),stoichiometry N,[5],2
B1,binding result,[6],binds

# — publication PMC9581967, “Helical ultrastructure of the metalloprotease meprin α in complex with a small molecule inhibitor” (Nature Communications, 2022)
